Measured values as given in PMC2190711.

How the values were obtained:
Experiment in all cases: CD
hZαADAR1 (Homo sapiens) = system: hZαADAR1 (Homo sapiens)
[1] = system: lsZαE3L (lumpy skin disease virus)
spZαE3L (swinepox virus) = system: spZαE3L (swinepox virus)

d(CG)n DNA for CD B-to-Z conversion
binding signal (% B-to-Z conversion) (hZαADAR1 (Homo sapiens)): 100
binding signal (% B-to-Z conversion) [1]: 90
binding signal (% B-to-Z conversion) (spZαE3L (swinepox virus)): 65
